Experimental data from the supplement of paper PMC11780869.

Test system: Bacillus subtilis
Assay: cleaved RNA product abundance (RNA/gDNA barcode ratio) relative to median wild-type variant (ratio to wild type); higher = more accumulation of the downstream cleavage product
Summary of the method: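 B. subtilis strains with chromosomally integrated reporter mRNAs (truncated aprE or tetM) holding barcoded, mutagenized RNase Y cleavage-site windows grew in LB at 37°C from OD600 0.0003 to 0.3. Cleaved product abundance is each construct's RNA:gDNA barcode ratio, scaled to the median construct with the unmutated site. It came from sequencing barcodes of gel-selected, reverse-transcribed cleaved RNA and of genomic DNA.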

[1] = experiment (reporter, strain, medium): exp 4a: truncated aprE reporter, strain BJT201 with 2% xylose (RNase J1 expressed), cleavage site: cggR-gapA (positions -7 to +36 mutated)
[2] = experiment (reporter, strain, medium): exp 8a: truncated aprE reporter, strain BJT201 with 2% xylose (RNase J1 expressed), cleavage site: glnRA (positions -5 to +31 mutated)
[3] = experiment (reporter, strain, medium): exp 2b: truncated aprE reporter, strain BJT200, cleavage site: cggR-gapA (positions -7 to +36 mutated)
[4] = experiment (reporter, strain, medium): exp 6: tetM reporter, strain 168, cleavage site: cggR-gapA (positions -7 to +36 mutated)

Sequence | cleaved RNA product abundance [1] | cleaved RNA product abundance [3] | further results
ACAGACGAAGGAGCCGCAAAGAAGTTATTAAGTGGTGAATAATCCCTCAATATAAATATCTCTCACTTATTTAAA | 0.103 |  | 
CGACATGTCCCGCTTCTTTCATTATTCCGTTAGCAACTGTTTTGCTATATACAATTACCTTTTAAGAGGAGGAAT |  |  | cleaved RNA product abundance [2]: 1.31
ACAGACGAAGGAGCCGCAAAGAAGTTATTAAGGCATGAATACTCCCTCAATATAAATATCTCTCACTTATTTAAA | 0.072 |  | 
ACAGACGAAGGAGCCGCAAAGAAGTTATTAACGGATGAATAATCCATCAATATAAATATCTCTCACTTATTTAAA | 0.233 | 0.138 | 
CGACATGTCCCGCTTCTTTCATTAATCCGTTAGAAACTGTTTTCCTATATACATTTACCTTTTAAGAGGAGGAAT |  |  | cleaved RNA product abundance [2]: 0.317
ACAGACGAAGGAGCCGCAAAGAATTTATTAAGGGATGAATAATCCCTCAATATAAATATTTCTCACTTATTTAAA | 0.259 |  | 
ACAGACGAAGGAGCCGCAAAGAAGTTATTAAGCGATGAATAATTCCTCAATATAAATATCTCTCACTTATTTAAA | 0.096 | 0.0741 | 
CGACATGTCCCGCTTCTTTCATTACTCCGTTAGCAACTGTTTTGCTATATACATTTACGTTTTAAGAGGAGGAAT |  |  | cleaved RNA product abundance [2]: 0.893
ACAGACGAAGGAGCCGCAAAGATGTTATTAATGGATGAATAATCCCTCAATATAAATATCTCTCACTTATTTAAA | 0.135 | 0.131 | 
ACAGACGAAGGAGCCGCTAAGAAGTTATTAAGGGATGAATAATCCCTCAATATAAATATCTCTCACTTATTTAAA | 0.985 | 1.04 | cleaved RNA product abundance [4]: 1.03
ACAGACGAAGGAGCCGCAAAGAAGTTATTAAGGGATGAATATTCCCGCAATATAAATATCTCTCACTTATTTAAA | 0.221 |  | 
ACAGACGAAGGAGCCGCAAAGAAGTTATTAAGGGATCAATACTCCCTCAATATAAATATCTCTCACTTATTTAAA | 0.579 |  | 
ACAGACGAAGGAGCCGCAAAGAAGTTATTAAGGGATGAATAATCCCTCAAAATAAATAACTCTCACTTATTTAAA | 0.363 |  | 
ACAGACGAAGGAGCCGCAAAGAAGTTAATAAGGGATGAATAATCCCTCAATATAAAAATCTCTCACTTATTTAAA | 0.278 |  | 
ACAGACGAAGGAGCCGCAAAGAAGTTATAAATGGATGAATAATCCCTCAATATAAATATCTCTCACTTATTTAAA | 0.165 | 0.113 | 
ACAGACGAAGGAGCCGCAAAGAAGTTATTTAGGGATGAATAATCCATCAATATAAATATCTCTCACTTATTTAAA | 0.34 |  | 
ACAGACGAAGGAGCCGCAAAGAAGTTATTAAGGGATGCATAATCCCTCAATATAAATAGCTCTCACTTATTTAAA | 0.45 |  | 
ACAGACGAAGGAGCCGCAAAGAAGTTATTTAGGCATGAATAATCCCTCAATATAAATATCTCTCACTTATTTAAA | 0.135 | 0.0926 | 
ACAGACGAAGGAGCCGCAAAGAAGTTATTAACGGATGAATAATCCCTCAATATAGATATCTCTCACTTATTTAAA | 0.158 |  | 
ACAGACGAAGGAGCCGCAAAGAAGGTATTAAGGGATGAATAATCCCACAATATAAATATCTCTCACTTATTTAAA |  | 0.314 | 

Sequence | cleaved RNA product abundance [1] | cleaved RNA product abundance [3] | further results
ACAGACGAAGGAGCCGCGAAGAAGTTATTAATGGATGAATAATCCCTCAATATAAATATCTCTCACTTATTTAAA | 0.214 |  | 
CGACATGTCCCGCTTCTTTCATTAATCCGTTAGCAACTGTTTTGCTATATACATTTATCGTTTAAGAGGAGGAAT |  |  | cleaved RNA product abundance [2]: 0.92
ACAGACGAAGGAGCCGCAAAGAAGATATTAAGGGATGAATAATCCCTCAATATAAAAATCTCTCACTTATTTAAA | 0.576 |  | 
ACAGACGAAGGAGCCGCACAGAAGTTATTAAGGGATGAATAAACCCTCAATATAAATATCTCTCACTTATTTAAA | 0.34 | 0.294 | 
ACAGACGAAGGAGCCGCAAAGAAGTTATTAAGTGATGAATAATCCCTCAATCTAAATATCTCTCACTTATTTAAA | 0.0609 |  | 
CGACATGTCCCGCTTCTTTCATTAATCCGTTAGTATCTGTTTTACTATATACATTTACCTTTTAAGAGGAGGAAT |  |  | cleaved RNA product abundance [2]: 0.917
ACAGACGAAGGAGCCGCAAAGAAGTTATAAAGGGATGAATAATCCTTCAATATAAATATCTCTCACTTATTTAAA | 0.283 | 0.174 | 
ACAGACGAAGGAGCCGCAAAGAAGTTATTAAGCGATGAACAATCCCTCAATATAAATATCTCTCACTTATTTAAA | 0.133 |  | 
ACAGACGAAGGAGCCGCAAAGAAGTGATTAAGTGATGAATAATCCCTCAATATAAATATCTCTCACTTATTTAAA | 0.0876 | 0.114 | 
ACAGACGAAGGAGCCGCAAAGAATTTATTAATGGATGAATAATCCCTCAATATAAATATCTCTCACTTATTTAAA | 0.111 | 0.105 | 
ACAGACGAAGGAGCCGCAAAGAAGTTATTAAGGGATGAATAATACCTCAAGATAAATATCTCTCACTTATTTAAA | 0.124 | 0.102 | 
ACAGACGAAGGAGCCGCAAAGAAGTGATTAAGGGATGAATAATCCTTCAATATAAATATCTCTCACTTATTTAAA | 0.342 | 0.337 | 
ACAGACGAAGGAGCCGCAAAGAAGTTATTATGGGATGAATAATCCCTCAATATAGATATCTCTCACTTATTTAAA | 0.323 |  | 
ACAGACGAAGGAGCCGCAAAGAAGTTATTAAGGGATTAATAATCCCTCAACATAAATATCTCTCACTTATTTAAA | 0.444 |  | 
ACAGACGAAGGAGCCGCAAAGAAGTTATTAAGGGATGAATAATACCTCAATATAAAAATCTCTCACTTATTTAAA | 0.179 | 0.144 | 
ACAGACGAAGGAGCCGCAAAGAAGTTATTAAGGGATGAATAATCACTCAATATAAATAGCTCTCACTTATTTAAA | 0.101 |  | 
ACAGACGAAGGAGCCGCAAAGAAGTTATTATGGGATGAATAATCCCTCAATATAATTATCTCTCACTTATTTAAA | 0.294 |  | 
ACAGACGAAGGAGCCGCAAAGCAGTTATTAAGGGAAGAATAATCCCTCAATATAAATATCTCTCACTTATTTAAA | 0.561 |  | 
CGACATGTCCCGCTTCTTTCATTAATCCGTTAACAACTGTTTTGCTATATACATTTACCCTTTAAGAGGAGGAAT |  |  | cleaved RNA product abundance [2]: 0.198
CGACATGTCCCGCTTCTTTCATTAATACGTTAACAACTGTTTTGCTATATACATTTACCTTTTAAGAGGAGGAAT |  |  | cleaved RNA product abundance [2]: 0.195

Sequence | cleaved RNA product abundance [1] | cleaved RNA product abundance [3] | further results
CGACATGTCCCGCTTCTTTCATTACTCCATTAGCAACTGTTTTGCTATATACATTTACCTTTTAAGAGGAGGAAT |  |  | cleaved RNA product abundance [2]: 1.18
CGACATGTCCCGCTTCTTTCATTAATCCGTTGGCAACTGTTTTGCTATATACATTTACCTTTTAAGAGGAGGAAT |  |  | cleaved RNA product abundance [2]: 0.739
CGACATGTCCCGCTTCTTTCATTAATCCGTTAGCAATTGTTTTGCTAAATACATTTACCTTTTAAGAGGAGGAAT |  |  | cleaved RNA product abundance [2]: 0.342
ACAGACGAAGGAGCCGCAAAGAAGTTATTAAGGGATGAATAATCCCTCAATATAAATATGACTCACTTATTTAAA | 1 |  | 
ACAGACGAAGGAGCCGCAAAGAAGTAATTAAGCGATGAATAATCCCTCAATATAAATATCTCTCACTTATTTAAA | 0.157 |  | 
ACAGACGAAGGAGCCGCAAAGAAGTTAATAAGCGATGAATAATCCCTCAATATAAATATCTCTCACTTATTTAAA | 0.104 | 0.0808 | 
ACAGACGAAGGAGCCGCAAAGAAGTAATTAAGGGATGAATAATCACTCAATATAAATATCTCTCACTTATTTAAA | 0.109 |  | 
ACAGACGAAGGAGCCGCAAAGAAGTTATTAAGGAATGAATAATCCCTCAATATAATTATCTCTCACTTATTTAAA | 0.117 |  | 
ACAGACGAAGGAGCCGCAAACAAGTTATAAAGGGATGAATAATCCCTCAATATAAATATCTCTCACTTATTTAAA | 0.408 |  | 
ACAGACGAAGGAGCCGCAAAGAAGTTATTAAGGGATGAATAATTCCTCAAGATAAATATCTCTCACTTATTTAAA | 0.256 | 0.146 | 
ACAGACGAAGGAGCCGCAAAGAAGTTATTAAGGGATGAATACTCCTTCAATATAAATATCTCTCACTTATTTAAA | 0.253 |  | 
ACAGACGAAGGAGCCGCAAAGAATTTATTAAGGGGTGAATAATCCCTCAATATAAATATCTCTCACTTATTTAAA | 0.526 |  | 
ACAGACGAAGGAGCCGCAAAGAAGTTATTAAGGGATGAATAATCCCTAAATATTAATATCTCTCACTTATTTAAA |  | 0.189 | 
ACAGACGAAGGAGCCGCAAAGAAGTTATTAAGGGATGAATAATCCCCTCAATATAAATATCTCTCACTTATTTAA | 0.364 | 0.181 | 
ACAGACGAAGGAGCCGCAAAGAAGTTATTTAGGGATGAATAATCGCTCAATATAAATATCTCTCACTTATTTAAA | 0.0995 |  | 
ACAGACGAAGGAGCCGCAAAGAAGTTATTAAAGGATGAATACTCCCTCAATATAAATATCTCTCACTTATTTAAA | 0.108 | 0.117 | 
CGACATGTCCCGCTTCTTTCATTAATCTGTTAGCAACTGTTTTGCTATATACATTGACCTTTTAAGAGGAGGAAT |  |  | cleaved RNA product abundance [2]: 0.991
CGACATGTCCCGCTTCTTTCATTAATTCGTTAGCAACTGTTTTGCTATATACATGTACCTTTTAAGAGGAGGAAT |  |  | cleaved RNA product abundance [2]: 0.933
ACAGACGAAGGAGCCGCAAAGTAGTTATTAAGGGATGAATAATCCCTTAATATAAATATCTCTCACTTATTTAAA |  | 0.869 | cleaved RNA product abundance [4]: 0.729
ACAGACGAAGGAGCCGCATAGAAGTTATCAAGGGATGAATAATCCCTCAATATAAATATCTCTCACTTATTTAAA | 0.549 |  | 
